{
  "source": "paper PMC4961739",
  "about": "“Regulation of post-Golgi LH3 trafficking is essential for collagen homeostasis” (Nature Communications, 2016)",
  "binders": {"B1": {"name": "His6-StrepII3-tagged VIPAR (natural protein, human, UniProt Q9H9C1 1-493, looked up)", "chain": "MNRTKGDEEEYWNSSKFKAFTFDDEDDELSQLKESKRAVNSLRDFVDDDDDDDLERVSWSGEPVGSISWSIRETAGNSGSTHEGREQLKSRNSFSSYAQLPKPTSTYSLSSFFRGRTRPGSFQSLSDALSDTPAKSYAPELGRPKGEYRDYSNDWSPSDTVRRLRKGKVCSLERFRSLQDKLQLLEEAVSMHDGNVITAVLIFLKRTLSKEILFRELEVRQVALRHLIHFLKEIGDQKLLLDLFRFLDRTEELALSHYREHLNIQDPDKRKEFLKTCVGLPFSAEDSAHIQDHYTLLERQIIIEANDRHLESAGQTEIFRKHPRKASILNMPLVTTLFYSCFYHYTEAEGTFSSPVNLKKTFKIPDKQYVLTALAARAKLRAWNDVDALFTTKNWLGYTKKRAPIGFHRVVEILHKNNAPVQILQEYVNLVEDVDTKLNLATKFKCHDVVIDTYRDLKDRQQLLAYRSKVDKGSAEEEKIDALLSSSQIRWKN", "notes": "VIPAR (VIPAS39), human, UniProt Q9H9C1; construct pUPE.02.09-VIPAR; also called pUPE.02.09-VIPAR; recombinant tagged VIPAR; source: HEK293 cells stably expressing Epstein-Barr virus Nuclear Antigen I, co-transfected with VPS33B; in lysate, then purified (Streptactin Sepharose, Superdex 200); not shown: His6-StrepII3, N-terminal, kept"}},
  "molecular_target": "T1, His6-cMyc4-tagged VPS33B (human, UniProt Q9H267 1-617)",
  "T1 construct": "VPS33B, human, UniProt Q9H267; construct pUPE.02.13-VPS33B; also called pUPE.02.13-VPS33B; recombinant tagged VPS33B; source: HEK293 cells stably expressing Epstein-Barr virus Nuclear Antigen I, co-transfected with VIPAR; in lysate, then co-purified with VIPAR (Streptactin Sepharose, Superdex 200); not shown: His6-cMyc4, N-terminal, kept",
  "T1 sequence (looked up)": "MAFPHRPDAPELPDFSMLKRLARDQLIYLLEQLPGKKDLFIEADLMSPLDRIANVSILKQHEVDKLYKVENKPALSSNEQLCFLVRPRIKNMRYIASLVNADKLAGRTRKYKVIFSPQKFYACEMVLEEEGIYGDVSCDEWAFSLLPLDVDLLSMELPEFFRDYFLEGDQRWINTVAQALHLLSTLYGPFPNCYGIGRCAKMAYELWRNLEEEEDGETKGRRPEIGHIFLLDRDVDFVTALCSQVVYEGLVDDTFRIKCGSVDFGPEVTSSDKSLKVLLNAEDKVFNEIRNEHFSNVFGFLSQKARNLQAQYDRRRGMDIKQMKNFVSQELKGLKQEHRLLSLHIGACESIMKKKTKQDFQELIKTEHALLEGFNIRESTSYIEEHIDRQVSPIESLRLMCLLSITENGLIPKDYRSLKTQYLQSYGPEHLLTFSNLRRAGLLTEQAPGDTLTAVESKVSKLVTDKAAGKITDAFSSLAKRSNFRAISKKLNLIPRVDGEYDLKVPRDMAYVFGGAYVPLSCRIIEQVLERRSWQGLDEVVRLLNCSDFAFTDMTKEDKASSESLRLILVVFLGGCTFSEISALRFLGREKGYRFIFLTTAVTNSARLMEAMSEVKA",
  "test": "affinity purification with mass spectrometry; His6-StrepII3-VIPAR and His6-cMyc4-VPS33B coexpressed in HEK293 cells; soluble lysate (0.3% NP-40, NaCl to 300 mM) on Streptactin Sepharose, eluted with 2.5 mM desthiobiotin, Superdex 200; purified sample analysed by LC-MS/MS",
  "details": "partners not purified",
  "data": [
    {"binder": "B1", "values": [
      {"measurement": "binding result", "value": "binds"}
    ]}
  ]
}
